Substitutions are numbered along the chain they refer to.
B1: CRT1 (antibody, IgG1, V domains shown)
VH: EVQLQQSGAELMKPGASVKISCKATGYTFSSYWIEWVKQRPGHGLEWIGEILPGSGSTNYNEKFKGKATFTADTSSNTAYMQLSSLTSEDSAVYYCARGGDYDEEYYVMDYWGQGTSVTV
VL: QIVLTQSPAIMSASPGEKVTMTCSASSSVSYMYWYQQKPGSSPRLLIYDTSNLASGVPVRFSGSGSGTSYSLTISRMEAEDAATYYCQQWSSYPLTFGAGTKLELKR
notes: also called C1; CR1
B2: CRT5 (antibody, IgG1, V domains shown)
VH: AEVQLQQSGAELMKPGASVKISCKATGYTFSSYWIEWVNQRPGHGLEWIGEILPGSGSTNYNEKFKGKATFTADTSSNTAYMQLSSLTSEDSAVYYCARGGDYDEEYYAMDYWGQGTSVTL
VL: B1 VL with A82G
notes: also called C5
B3: CRT3 (antibody, IgG1, V domains shown)
VH: EVQLQQSGTVLARPGASVKMSCKASGYTFTSYWMHWVKQRPGQGLEWIGAIYPGNSDTSYNQKFKGKAKLTAVTSTSTAYMELSSLTNEDSAVFYCTHYYGSDYAMDYWGQGTSVTV
VL: QIVLTQSPAIMSASLGERVTMTCTASSSVSSSYLHWYQQKPGSSPKLWIYSTSNLASGVPARFSGSGSGTSYSLTISSMEAEDAATYYCHQYHRSPRTFGGGTKLEIKR
notes: The VL entry ends with AAA from the cloning site; also called C3
B4: HA-CLEC14A (receptor)
chain: EHPTADRAGCSASGACYSLHHATMKRQAAEEACILRGGALSTVRAGAELRAVLALLRAGPGPGGGSKDLLFWVALERRRSHCTLENEPLRGFSWLSSDPGGLESDTLQWVEEPQRSCTARRCAVLQATGGVEPAGWKEMRCHLRANGYLCKYQFEVLCPAPRPGAASNLSYRAPFQLHSAALDFSPPGTEVSALCRGQLPISVTCIADEIGARWDKLSGDVLCPCPGRYLRAGKCAELPNCLDDLGGFACECATGFELGKDGRSCVTSGEGQPTLGGTGVPTRRPPATATSPVPQRTWPIRVDEKLGETPLVPEQDNSVTSIPEIPRWGSQSTMSTLQMSLQAESKATITPSGSVISKFNSTTSSATPQAFDSSSAVVFIFVSTAVVVLVILTMTVLGLVKLCFHESPSSQPRKESMGPPGLESDPEPAALGSSSAHCTNNGVKVGDCDLRDRAEGALLAESPLGSSDA
notes: also called CLEC14A wild type (WT) with an N-terminal HA tag; not shown: N-terminal HA tag
B5: CRT4 (antibody, IgG1, V domains shown)
VH: QVQLQQSGAELMKPGASVKISCKATGYTFSSYWIEWVNRRPGHGLEWIGEILPGSGSTNYNEKFKGKATFTADTSSNTAYMQLSSLTSEDSAVYYCARGGDYDEEYYLMDYWGQGTTLTVSS
VL: B1 VL with L105I
notes: also called C4
B6: CLEC14A with regions 97-108 of CD141 (receptor)
chain: not shown
notes: also called this mutant

Experiments:
[1] = target: T1, Chimera 5; test: flow cytometry, HEK293T Chimera 5 GFP, GFP-positive cells gated (R1)
T1 construct: GFP fusion; also called CLEC14A with CTLD of CD141; CTLD of thrombomodulin, rest CLEC14A
T1 sequence (chain, as listed by the source mutant limits assumed): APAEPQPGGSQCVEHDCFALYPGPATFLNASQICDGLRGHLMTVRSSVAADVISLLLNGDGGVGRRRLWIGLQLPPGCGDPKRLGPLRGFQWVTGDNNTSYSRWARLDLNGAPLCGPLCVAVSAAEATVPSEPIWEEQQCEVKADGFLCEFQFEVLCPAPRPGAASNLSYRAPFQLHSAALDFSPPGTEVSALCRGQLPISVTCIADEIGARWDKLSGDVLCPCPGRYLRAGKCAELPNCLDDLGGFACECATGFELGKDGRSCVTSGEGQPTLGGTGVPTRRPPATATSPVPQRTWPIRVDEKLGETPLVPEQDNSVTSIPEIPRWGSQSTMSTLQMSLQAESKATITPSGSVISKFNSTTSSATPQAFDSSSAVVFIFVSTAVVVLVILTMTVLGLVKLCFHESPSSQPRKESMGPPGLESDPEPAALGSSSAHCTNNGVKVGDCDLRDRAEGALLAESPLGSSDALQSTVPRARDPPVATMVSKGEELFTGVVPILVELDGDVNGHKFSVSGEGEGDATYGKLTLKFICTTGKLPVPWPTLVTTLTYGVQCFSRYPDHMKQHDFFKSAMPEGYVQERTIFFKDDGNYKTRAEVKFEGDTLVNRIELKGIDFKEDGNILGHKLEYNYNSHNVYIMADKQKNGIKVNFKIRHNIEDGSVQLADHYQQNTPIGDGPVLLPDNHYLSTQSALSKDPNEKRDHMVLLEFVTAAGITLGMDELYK

[2] = target: T2, wild type thrombomodulin with GFP tag (UniProt P07204 19-575); test: flow cytometry, HEK293T Thrombomodulin CD141 WT GFP, GFP-positive cells gated (R1)
T2 construct: whole, on cells; Expressed in HEK293T cells; also called WT CD141; CD141; not shown: C-terminal GFP tag
T2 sequence (P07204 19-575): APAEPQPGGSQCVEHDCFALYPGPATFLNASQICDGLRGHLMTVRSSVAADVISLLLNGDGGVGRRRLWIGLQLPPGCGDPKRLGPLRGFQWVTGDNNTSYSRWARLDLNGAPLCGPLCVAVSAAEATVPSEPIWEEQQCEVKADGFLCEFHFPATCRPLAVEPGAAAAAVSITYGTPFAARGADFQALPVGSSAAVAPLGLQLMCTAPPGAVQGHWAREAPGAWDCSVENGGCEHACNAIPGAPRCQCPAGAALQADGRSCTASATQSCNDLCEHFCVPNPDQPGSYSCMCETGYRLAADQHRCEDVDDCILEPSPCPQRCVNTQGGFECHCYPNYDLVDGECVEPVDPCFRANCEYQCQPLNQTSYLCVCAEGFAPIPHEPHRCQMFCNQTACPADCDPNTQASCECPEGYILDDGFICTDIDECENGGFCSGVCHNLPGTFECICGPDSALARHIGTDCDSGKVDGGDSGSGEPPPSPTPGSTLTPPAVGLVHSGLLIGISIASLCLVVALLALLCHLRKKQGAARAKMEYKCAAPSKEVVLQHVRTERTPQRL

[3] = target: T3, CLEC14A wild type with a C terminal GFP tag (human, UniProt Q86T13 22-490); test: flow cytometry, HEK293T CLEC14A WT GFP, GFP-positive cells gated (R1); filled histogram is the control (files named IgG)
T3 construct: Expressed in HEK293T cells; GFP-positive cells gated; also called WT CLEC14A; not shown: C-terminal GFP tag
T3 sequence: B4 chain

[4] = target: T4, Chimera 6; test: flow cytometry, HEK293T Chimera 6 GFP, GFP-positive cells gated (R1); filled histogram is the control (files named IgG)
T4 construct: GFP fusion; also called CLEC14A with SUSHI of CD141; Sushi of thrombomodulin

[5] = target: T5, human CLEC14A-ECD-Fc (human, UniProt Q86T13 22-396); test: pre-incubation of CLEC14A-ECD-Fc with antibody before MMRN2 pull-down
T5 construct: also called CLEC14A-Fc; hCLEC14A-Fc; not shown: human Fc tag from the pcDNA3-Fc plasmid
T5 sequence: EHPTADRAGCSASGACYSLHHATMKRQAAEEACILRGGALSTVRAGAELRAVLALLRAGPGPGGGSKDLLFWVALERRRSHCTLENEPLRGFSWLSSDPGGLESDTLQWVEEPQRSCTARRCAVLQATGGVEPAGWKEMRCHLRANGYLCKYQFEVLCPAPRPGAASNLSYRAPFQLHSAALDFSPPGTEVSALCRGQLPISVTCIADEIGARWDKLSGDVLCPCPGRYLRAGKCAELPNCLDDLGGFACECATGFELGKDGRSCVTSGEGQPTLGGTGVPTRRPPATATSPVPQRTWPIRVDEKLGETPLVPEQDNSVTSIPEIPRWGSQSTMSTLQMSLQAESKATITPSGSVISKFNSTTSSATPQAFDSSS
Method: Human CLEC14A-ECD-Fc was bound to protein A beads, blocked in 20% FCS and then incubated with each blocking condition. This was then added to lysates of HEK293T cells overexpressing full-length human MMRN2 with a His tag. Pre-incubating with CRT1, CRT4 and CRT5 decreased the levels of MMRN2 pulled down by CLEC14A-ECD-Fc.
To determine which CLEC14A monoclonal antibodies could inhibit the binding of MMRN2 to CLEC14A, CLEC14A-ECD-Fc was pre-incubated with increasing concentrations of mIgG1, or CR1-5, prior to incubation with lysates from HEK293T cells overexpressing MMRN2. Precipitates were then separated and probed for MMRN2 or CLEC14A-ECD-Fc. […] This confirms that antibodies C1, 4 and 5 bind CLEC14a on an epitope that is distinct from the one that C2 and 3 monoclonal antibodies bind and thus specifically block the MMRN2 interaction with CLEC14A.

[6] = target: B6; test: flow cytometry, HEK293T 97-108 Chimera GFP, GFP-positive cells gated (R1)
[7] = target: T6, murine CLEC14A-Fc (mouse, UniProt Q8VCP9 22-386, limits assumed); test: ELISA, hybridoma supernatant on absorbed antigen
T6 construct: Murine CLEC14A protein with a human Fc tag, made in HEK293T cells; also called CM; mCLEC14A-Fc; not shown: human Fc tag
T6 sequence (looked up): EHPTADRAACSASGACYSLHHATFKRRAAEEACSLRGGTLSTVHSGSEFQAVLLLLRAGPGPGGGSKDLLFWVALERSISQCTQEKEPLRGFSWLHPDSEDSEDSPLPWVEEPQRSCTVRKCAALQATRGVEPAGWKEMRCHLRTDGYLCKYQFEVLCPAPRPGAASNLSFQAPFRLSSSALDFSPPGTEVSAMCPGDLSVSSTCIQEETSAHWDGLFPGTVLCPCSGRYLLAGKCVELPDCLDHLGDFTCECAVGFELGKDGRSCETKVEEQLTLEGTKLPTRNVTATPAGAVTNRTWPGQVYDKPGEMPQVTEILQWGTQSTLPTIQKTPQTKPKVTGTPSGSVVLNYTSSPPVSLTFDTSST

[8] = target: T7, human CLEC14A, full length (human, UniProt Q86T13 22-490); test: fluorescent imaging of HUVECs treated with the drug conjugate of CRT3, 0 and 90 minutes by the legend
T7 construct: also called CLEC14A on HUVECs (endogenous); CHO cells expressing full length human CLEC14A
T7 sequence: B4 chain
Method: HUVECs were treated with CRT-3 ADC and fluorescent imaging was carried out to determine the localisation of CRT-3 after 0 and 90 minutes. Further, the cytotoxicity was measured using a Cell Titre Glo luminescent cell viability assay and the results are shown in FIG. 18B. As described above, 1 million Lewis lung carcinoma cells were injected subcutaneously into the right flank of 2 mice and allowed to grow to a visible size. 1 mg/kg of CRT-3-ADC or B12-ADC (control) was administered through tail vein injections.

[9] = target: T8, MMRN2 overexpressed in HEK293T cells (human, UniProt Q9H8L6 23-949); test: far Western blot of lysates of transfected HEK293T cells, probed with MMRN2 protein lysate
T8 construct: Used as cell lysate; also called full-length human MMRN2 with a His tag; hMMRN2; not shown: His tag (vector pHL-Avitag3)
T8 sequence: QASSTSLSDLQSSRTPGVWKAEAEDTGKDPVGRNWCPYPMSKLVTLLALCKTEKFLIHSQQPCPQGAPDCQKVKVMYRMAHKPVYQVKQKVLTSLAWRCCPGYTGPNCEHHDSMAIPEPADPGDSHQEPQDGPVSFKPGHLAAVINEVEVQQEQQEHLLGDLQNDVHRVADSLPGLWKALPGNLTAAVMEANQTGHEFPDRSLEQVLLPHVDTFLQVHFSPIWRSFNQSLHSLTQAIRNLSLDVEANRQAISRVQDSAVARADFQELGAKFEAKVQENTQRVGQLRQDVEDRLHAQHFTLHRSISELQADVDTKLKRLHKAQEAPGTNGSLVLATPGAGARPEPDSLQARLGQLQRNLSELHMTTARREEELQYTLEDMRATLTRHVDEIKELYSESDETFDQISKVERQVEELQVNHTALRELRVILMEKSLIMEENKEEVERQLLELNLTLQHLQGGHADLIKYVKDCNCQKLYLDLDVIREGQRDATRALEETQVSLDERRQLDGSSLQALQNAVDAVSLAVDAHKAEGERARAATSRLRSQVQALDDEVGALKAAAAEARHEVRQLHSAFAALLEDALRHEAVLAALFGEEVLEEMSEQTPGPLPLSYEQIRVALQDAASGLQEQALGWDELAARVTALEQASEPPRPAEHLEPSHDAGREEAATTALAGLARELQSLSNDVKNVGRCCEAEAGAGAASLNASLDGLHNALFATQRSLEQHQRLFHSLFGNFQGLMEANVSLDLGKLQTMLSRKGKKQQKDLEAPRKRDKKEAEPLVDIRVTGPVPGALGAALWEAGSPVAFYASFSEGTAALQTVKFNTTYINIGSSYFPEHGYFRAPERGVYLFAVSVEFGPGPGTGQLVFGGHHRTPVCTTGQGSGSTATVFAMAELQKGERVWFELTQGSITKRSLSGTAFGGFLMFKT
From the text: HEK293T cells were mock transfected or transfected with pCS2 vectors containing CLEC14A wild type (WT) or constructs with each major domain deleted (Δ) with an N-terminal HA tag. Upon far western blotting with MMRN2 protein lysate, binding can be seen in all mutants except those missing the C-type lectin domain (CTLD) or the sushi domain. An anti-HA blot was included to show all mutant proteins were expressed.

[10] = target: T8, MMRN2 overexpressed in HEK293T cells; test: method for MMRN2 not described

Binder	binding result [1]	binding result [2]	binding result [3]	binding result [4]	binding result [5]	binding result [6]	binding result [7]	binding result [8]	binding result [9]	binding result [10]
B1	no binding	no binding	binds	binds	binds	no binding	binds			
B2	no binding	no binding				no binding				
B3	no binding	no binding	binds	binds	binds		binds	binds		
B4									binds	
B5	no binding	no binding				no binding				
B6										no binding

— patent US20190085081A1 (CANCER RESEARCH TECHNOLOGY, published 2019)
